{
  "source": "patent US20170268001A1",
  "about": "“RNAS WITH TUMOR RADIO/CHEMO-SENSITIZING AND IMMUNOMODULATORY PROPERTIES AND METHODS OF THEIR PREPARATION AND APPLICATION” (THE UNIVERSITY OF CHICAGO, priority 2016, published 2017)",
  "biological_target": "T1, RIG-I (Homo sapiens, UniProt O95786)",
  "T1 construct": "HEK293 cells overexpressing either the full length RIG-I; host or cells: HEK293; HCT116 also for the qRT-PCR validation",
  "T1 sequence (O95786 1-925)": "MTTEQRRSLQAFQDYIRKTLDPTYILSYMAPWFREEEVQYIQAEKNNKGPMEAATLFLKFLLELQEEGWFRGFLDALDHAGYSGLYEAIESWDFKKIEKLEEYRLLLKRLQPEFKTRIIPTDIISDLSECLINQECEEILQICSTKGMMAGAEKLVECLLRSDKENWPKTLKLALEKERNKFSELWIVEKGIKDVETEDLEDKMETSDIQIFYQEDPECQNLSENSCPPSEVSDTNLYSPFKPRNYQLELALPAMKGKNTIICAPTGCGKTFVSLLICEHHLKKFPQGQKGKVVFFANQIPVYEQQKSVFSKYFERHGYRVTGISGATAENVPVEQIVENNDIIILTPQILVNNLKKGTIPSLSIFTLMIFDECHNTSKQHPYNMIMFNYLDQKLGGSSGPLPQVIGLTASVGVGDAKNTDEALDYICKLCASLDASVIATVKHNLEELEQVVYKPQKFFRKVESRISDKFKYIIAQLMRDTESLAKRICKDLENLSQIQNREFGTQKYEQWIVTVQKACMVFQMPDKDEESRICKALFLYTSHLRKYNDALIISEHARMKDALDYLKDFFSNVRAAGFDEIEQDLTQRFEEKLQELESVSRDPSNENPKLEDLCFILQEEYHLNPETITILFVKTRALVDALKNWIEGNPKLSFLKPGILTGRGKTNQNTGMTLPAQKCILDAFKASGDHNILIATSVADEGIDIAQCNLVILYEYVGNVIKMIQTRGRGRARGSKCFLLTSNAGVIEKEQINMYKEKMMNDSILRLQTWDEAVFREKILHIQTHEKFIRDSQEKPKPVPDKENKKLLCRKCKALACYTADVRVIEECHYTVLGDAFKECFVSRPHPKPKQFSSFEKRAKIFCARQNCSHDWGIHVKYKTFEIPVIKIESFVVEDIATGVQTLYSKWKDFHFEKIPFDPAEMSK",
  "assay": "HEK293 IFN-beta promoter dual luciferase reporter, RNA stimulation",
  "assay_type": "cell-based",
  "conditions": "in vitro transcribed RNA, RIG-I overexpressing HEK293 cells; also activates endogenous RIG-I",
  "experimental": "We also used reporter HEK293 cells as simple technique to evaluate ability of the given RNA to stimulate IFN-beta production in preliminary in vitro experiments. Technically this was performed as follows: RNA stimulation of HEK293 IFN-beta reporter cells HEK293 cells were seeded in a 24-well plate overnight at a density of 1.5×10^5 cells/ml (75,000 cells/well). Cells were co-transfected with 100 ng of plasmid construct (pCAGGS empty vector, pCAGGS-RIG-I full-length, pCAGGS-RIG-I helicase-RD mutant construct, and […] mutant construct), together with 80 ng of a firefly luciferase reporter gene driven by an IFN-beta promoter and 20 ng of a Renilla luciferase (pRL-null) transfection control. Transfections were performed using a cationic lipid agent, Fugene HD (Promega), at a 3:1 lipid:DNA ratio. Twenty-four hours post-transfection, cells were then stimulated with 1 μg RNA* mixed with Fugene HD at 2:1 lipid: RNA ratio for 24 hours. 20 μl cell lysates were collected in opaque 96-well plates and analyzed for IFN-beta-luciferase and Renilla activity using a BioTek Synergy HT plate reader. The transfection efficiency across different wells was normalized by dividing the IFN-beta luciferase activity with the Renilla activity. All values were further normalized to the unstimulated controls in cells transfected with the empty vector. All pCAGGS RIG-I constructs used in this study were generous gifts from Dr. Jenish Patel and Dr. Adolfo Garcia-Sastre of The Icahn School of Medicine at Mount Sinai in New York City. Synthetic RNA comprised of various stem loop regions of the human U1 snRNA were purchased from IDT Oligos as reported in (Bernard et al., 2012). U1 stem loop I sequence: [NT] ID NO:15); U1 stem loop II sequence: [NT] ID NO:16); U1 stem loop III sequence: [NT] ID NO:17); U1 stem loop IV sequence: [NT] ID NO:18); U1 stem loops I and II sequence: [NT] ID NO:19); U1 stem loops II and III sequence: [NT] ID NO:20). In vitro transcribed U1 RNA stimulation: Full length U1 (pT7U1) plasmid was generously provided by Dr. Joan Steitz (Yale School of Medicine, Yale University). […]",
  "data": [
    {"molecule": "M5: rbRNA, RIG-I agonist, 81 nucleotides, SEQ ID NO:26 (nucleic acid, listed as DNA, chemistry not given here) GACGAAGACCACAAAACCAGATAAAAAATTATTTTTTATCTGGTTTTGTGGTCTTCGTCTATAGTGAGTCGTATTAATTTC", "values": [
      {"measurement": "IFN-beta stimulatory activity (IFN-beta luciferase reporter)", "result": "potent IFN-beta stimulatory activity"}
    ]}
  ]
}
